± gives the standard deviation of the averaged measurements.
system: ATP; test: switch fluorescence ratio, 500 uM ATP over buffer (Cy3 cluster intensity, sum of 5 cycles each) (fold (ratio)); higher = stronger signal-on switching upon ATP binding; sequences stand for … in TCGTCGGCAGCGTCAGATGTGTATAAGAGACAGTTTTTTTTTTTTTTTTTTTTTTTTT…TC; details: aptamer strand: ATP DNA aptamer (quencher-CACCTGGGGGAGTATTGCGGAGGAAGG + anchor), 100 nM annealed; ATP concentration: 500 uM
How it was run: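 For every switch-domain sequence, the fluorescence ratio is the mean of per-cluster values, each being summed target-cycle Cy3 intensity over summed buffer-cycle Cy3 intensity. Clusters outside 100-1000 RFU were excluded. On a modified Illumina MiSeq flow-cell, the Cy3-labelled switching-strand clusters were annealed to 100 nM quencher-labelled ATP aptamer, imaged in selection buffer and then after 15 min with 500 uM ATP at 22 °C. Five such cycles were run, with NaOH stripping and re-annealing between them.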
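Also: ATP exposure 15 min at 22 °C before imaging.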

| Sequence | switch fluorescence ratio |
| --- | --- |
| AAAGTAGGTT | 0.991 ± 0.023 |
| AAAGTATATA | 1.02 ± 0.04 |
| AAAGTCTATT | 0.99 ± 0.02 |
| AAAGTGCCCG | 0.979 ± 0.022 |
| AAAGTGGCCC | 0.997 ± 0.018 |
| AAAGTGGGCC | 0.9593 ± 0.0049 |
| AAAGTGGTCG | 1.1 ± 0.039 |
| AAAGTGGTCT | 1 ± 0.015 |
| AAAGTGTAAA | 1.08 ± 0.058 |
| AAAGTGTCGT | 0.973 ± 0.028 |
| AAAGTGTGCG | 1.01 ± 0.023 |
| AAAGTTAGTT | 1.03 ± 0.019 |
| AAAGTTATAT | 1.022 ± 0.0028 |
| AAAGTTTGTT | 1.025 ± 0.007 |
| AAAGTTTTAA | 1.02 ± 0.018 |
| AAATAAACA | 0.999 ± 0.023 |
| AAATAACGGT | 1.16 ± 0.21 |
| AAATAACTAC | 1.08 ± 0.015 |
| AAATAATTGG | 1.09 ± 0.013 |
| AAATAATTTA | 0.955 ± 0.038 |
| AAATACCGCA | 1.48 ± 0.17 |
| AAATACGCTC | 1.25 ± 0.2 |

| Sequence | switch fluorescence ratio |
| --- | --- |
| AAATACTTGC | 1.14 ± 0.074 |
| AAATAGACCG | 1 ± 0.0091 |
| AAATAGGTGG | 0.996 ± 0.024 |
| AAATAGTCTG | 0.972 ± 0.017 |
| AAATAGTGTG | 1 ± 0.033 |
| AAATATAGTG | 0.991 ± 0.025 |
| AAATATATAT | 0.994 ± 0.044 |
| AAATATATTC | 1.02 ± 0.012 |
| AAATATGGGC | 0.961 ± 0.022 |
| AAATATTATA | 1.02 ± 0.031 |
| AAATATTGAG | 1 ± 0.015 |
| AAATATTGGT | 1.01 ± 0.03 |
| AAATATTTCC | 1.09 ± 0.06 |
| AAATCAAACG | 1.05 ± 0.018 |
| AAATCAACCC | 0.9885 ± 0.0083 |
| AAATCAGGTT | 0.972 ± 0.016 |
| AAATCATTAT | 1.01 ± 0.019 |
| AAATCATTGG | 1.01 ± 0.026 |
| AAATCCAATA | 1.0106 ± 0.0007 |
| AAATCCCGCT | 1.0834 ± 0.00016 |
| AAATCCCGTA | 1.01 ± 0.052 |
| AAATCCGCTT | 1.27 ± 0.26 |

| Sequence | switch fluorescence ratio |
| --- | --- |
| AAATCGCGGA | 1.05 ± 0.011 |
| AAATCTTAAT | 1.002 ± 0.007 |
| AAATGAAAGT | 0.995 ± 0.015 |
| AAATGAATTT | 0.976 ± 0.014 |
| AAATGAGGGG | 0.992 ± 0.03 |
| AAATGCTACG | 1.01 ± 0.029 |
| AAATGCTTAG | 0.995 ± 0.011 |
| AAATGGAGTA | 1.01 ± 0.007 |
| AAATGGGAGA | 0.992 ± 0.026 |
| AAATGGGGTC | 0.998 ± 0.023 |
| AAATGGGTGA | 1.05 ± 0.017 |
| AAATGGGTTG | 1 ± 0.01 |
| AAATGGTAAT | 0.978 ± 0.036 |
| AAATGTGCGA | 0.977 ± 0.019 |
| AAATGTGGCA | 0.9862 ± 0.002 |
| AAATGTGTGG | 0.977 ± 0.019 |
| AAATGTTCTG | 0.948 ± 0.021 |
| AAATGTTTTG | 1.03 ± 0.026 |
| AAATTAAGGG | 1.02 ± 0.03 |
| AAATTAATCA | 1.04 ± 0.094 |
| AAATTACAGT | 0.99493 ± 0.00079 |
| AAATTATGCG | 0.99 ± 0.023 |

| Sequence | switch fluorescence ratio |
| --- | --- |
| AAATTATTCG | 1.03 ± 0.045 |
| AAATTCACTT | 0.997 ± 0.021 |
| AAATTCCGTG | 0.978 ± 0.043 |
| AAATTCTTCT | 1.04 ± 0.04 |
| AAATTGAAAT | 1.01 ± 0.031 |
| AAATTGATGG | 1 ± 0.084 |
| AAATTGCTGT | 1.012 ± 0.0069 |
| AAATTGGCAG | 1.06 ± 0.16 |
| AAATTGTGTG | 0.999 ± 0.0037 |
| AAATTGTTTG | 0.989 ± 0.041 |
| AAATTTGCCA | 0.9566 ± 0.0066 |
| AAATTTGGTA | 1.04 ± 0.021 |
| AAATTTTACT | 1.02 ± 0.031 |
| AAATTTTGGC | 1.1 ± 0.042 |
| AACAACAGGA | 1.03 ± 0.045 |
| AACAACATAG | 1.02 ± 0.036 |
| AACAAGCTAT | 1.03 ± 0.055 |
| AACAAGGGCG | 1.03 ± 0.018 |
| AACAGAGGGG | 1.01 ± 0.018 |
